# From patent US20160046703A1 (ORGENTEC DIAGNOSTIKA, published 2016)
# Biological target: bovine serum albumin (BSA) (bovine, UniProt P02769 25-607)
# Assay: ELISA on BSA-coated microtitre plates, detection with peroxidase-labelled RGS-6xHis antibody
# Method: For the ELISA detection of the specific β2-glycoprotein-binding activity of the scFv-CAD reaction module, serial dilutions of scFv-CAD in the indicated concentration were applied to microtitre plates coated with β2-glycoprotein and, for control purposes, with bovine serum albumin (BSA). The binding was determined using a peroxidase-labelled RGS-6×-His antibody (Qiagen, Hilden) and a tetramethylbenzidine (TMB) colour reaction by measurement of the O.D. 450.
# Characterisation of the binding reaction of the CAD-IgG-CH3-Knob02 modubody to the target β2-glycoprotein. […] The binding was determined using a peroxidase-labelled RGS-6×-His antibody (Qiagen, Hilden) and a tetramethylbenzidine (TMB) colour reaction by measurement of the O.D. 450 nm.
# In order to determine whether the CAD-IgG-CH3-Knob02 modubody has retained the β2-glycoprotein-binding activity of the scFv-CAD, purified CAD-IgG-CH3-Knob02 preparations were tested by immunoassays. […] The microtitre plates were washed and the binding of the CAD-IgG-CH3-Knob02 modubody was determined using a peroxidase-labelled RGS-6×-His antibody (Qiagen, Hilden) and a tetramethylbenzidine (TMB) colour reaction by measurement of the O.D. 450 nm. […] Specific binding to β2-glycoprotein was detected even at a concentration of the CAD-IgG-CH3-Knob02 modubody of 19 ng/ml.
# Sequence of bovine serum albumin (BSA) (P02769 25-607 limits assumed): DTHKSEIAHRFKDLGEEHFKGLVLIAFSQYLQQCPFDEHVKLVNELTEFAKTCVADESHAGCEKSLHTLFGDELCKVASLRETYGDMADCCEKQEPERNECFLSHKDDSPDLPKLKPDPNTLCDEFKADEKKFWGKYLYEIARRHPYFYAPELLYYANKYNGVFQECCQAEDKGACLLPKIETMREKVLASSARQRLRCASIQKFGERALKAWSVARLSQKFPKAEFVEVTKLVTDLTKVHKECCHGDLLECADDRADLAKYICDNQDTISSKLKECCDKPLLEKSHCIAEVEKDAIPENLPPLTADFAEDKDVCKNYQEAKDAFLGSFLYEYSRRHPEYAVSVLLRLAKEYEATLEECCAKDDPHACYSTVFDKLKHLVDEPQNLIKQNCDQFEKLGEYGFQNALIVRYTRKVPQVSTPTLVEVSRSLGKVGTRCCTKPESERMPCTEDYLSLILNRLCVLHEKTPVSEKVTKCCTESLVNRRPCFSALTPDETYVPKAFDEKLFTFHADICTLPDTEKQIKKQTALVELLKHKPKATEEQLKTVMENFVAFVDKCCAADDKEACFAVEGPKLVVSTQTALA
row,binding result,Binder
1,no binding (tested: 0.019-10 µg/ml),"scFv-CAD β2-glycoprotein-binding module (artificial protein sequence scFv-RP-CAD-P) (scFv, Expressed in E. coli from pQE-80L as a 30 kDa protein; also called CAD-scFv; scFV-CAD reaction module; not shown: RGS-6xHis tag from expression vector pQE-80L (detected with anti-RGS-6xHis antib)) scFv: LVPRGSDVLMTQTPLSLPVSLGDQASISCRSSQSIVHSNGNTYLEWYLQKPGQSPKLLIYKVSNRFSGVPDRFSGSGSGTDFTLKISRVEAEDLGVYYCFQGSHVPYTFGGGTKLEIKRTGSGSGGGGSGGGGSGGGGSSGGGGSGGGGSGGGGSGSGEVQLQQSGPELVKPGASVKISCKASGYTFTDYYMHWVRQRPGQGLEWIGEIYPGSGNTSYNEKFRGKATLTADKSSSTAYMQLSSLTSEDSAVYFCARGTLDYTMDYWGQGTSVTVSS"
2,no binding (tested: 0.019-10 µg/ml),"single-chain CAD-IgG-CH3-Knob02 modubody (designed binder, Domain order is VL-linker-VH-linker-IgG-CH3-Knob02, 44 kDa, made in E. coli; also called CAD-IgG-CH3-Knob32 (as misprinted once); not shown: RGS-6xHis tag from vector pQE-80L) LVPRGSDVLMTQTPLSLPVSLGDQASISCRSSQSIVHSNGNTYLEWYLQKPGQSPKLLIYKVSNRFSGVPDRFSGSGSGTDFTLKISRVEAEDLGVYYCFQGSHVPYTFGGGTKLEIKRTGSGSGGGGSGGGGSGGGGSSGGGGSGGGGSGGGGSGSGEVQLQQSGPELVKPGASVKISCKASGYTFTDYYMHWVRQRPGQGLEWIGEIYPGSGNTSYNEKFRGKATLTADKSSSTAYMQLSSLTSEDSAVYFCARGTLDYTMDYWGQGTSVTVSSGSGGGGSGGGGSGGGGSSGGGGSGGGGSGGGGSGSGEPQVYTLPPSREEMTKNQVSLYCLVKGFYPSDIAVEWESNGQPENNYKTYPPVLDSDGSFYLYSKLTVDKSRWQQGNVFSCSVMHEALHNHYTQKSLSL"
